Assay results from patent US20230295310A1 (ABCELLERA BIOLOGICS, published 2023).

Biological target: EGFR on HeLa cells (UniProt P00533 25-1210, limits assumed)
Assay: cell-based or functional assay

Binder | Max killing % [%] | X… HeLa EC50 [nM]
GOMP001_bsAb_024 (bispecific antibody, human IgG1, kappa, L234A L235A) heavy 1: QGQLVESGGGVVQPGRSLRLSCEASGFTFRSYGMHWVRKPPGKGLEWVAIIWYDGGKKYYGDEVKGRFTISRDNPKNTLYLQMNSLRPEDTAVYYCMAYDYSNGFDIWGQGTMVTVSSASTKGPSVFPLAPSSKSTSGGTAALGCLVADYFPEPVTVSWNSGALTSGVHTFPAVLQSSGLYSLSSVVTVPSSSLGTQTYICNVNHKPSNTKVDEKVEPKSCDKTHTCPPCPAPEAAGGPSVFLFPPKPKDTLMISRTPEVTCVVVDVSHEDPEVKFNWYVDGVEVHNAKTKPREEQYNSTYRVVSVLTVLHQDWLNGKEYKCKVSNKALPAPIEKTISKAKGQPREPQVYTLPPSREEMTDNQVSLTCLVKGFYPSDIAVEWESNGQPENNYKTTPPVLMSDGSFFLASKLTVDKSRWQQGNVFSCSVMHEALHNHYTQKSLSLSPG light 1: RIVMTQTPLSSPVTLGQPASISCRSSQSFVHSDGSTYLSWLQDRPGQPPRLLIYKISNRFSGVPDRFSGRGAGTDFTLKISRVEAEDVGIYYCMQNTQFPYTFGQGTKLEIKRTVAAPSVFIFPPSDKQLKSGTARVVCLLNNFYPREAKVQWKVDNALQSGNSQESVTEQDSKDSTYSLSSTLTLSKADYEKHKVYACEVTHQGLSSPVTKSFNRGEC heavy 2: QVQLVQSGAEVKKPGASVKVSCKASGYTFTSHWMHWVRYAPGQGLEWIGEFNPSNGRTNYNEKFKSKATMTVDTSTNTAYMELSSLRSEDTAVYYCASRDYDYDGRYFDYWGRGTLVTVSSASTKGPSVFPLAPSSKSTSGGTAALGCLVKDYFPEPVTVSWNSGALTSGVHTFPAVLQSSGLYSLSSVVTVPSSSLGTQTYICNVNHKPSNTKVDKKVEPKSCDKTHTCPPCPAPEAAGGPSVFLFPPKPKDTLMISRTPEVTCVVVDVSHEDPEVKFNWYVDGVEVHNAKTKPREEQYNSTYRVVSVLTVLHQDWLNGKEYKCKVSNKALPAPIEKTISKAKGQPRRPRVYTLPPSREEMTKNQVSLVCLVKGFYPSDIAVEWESNGQPENNYKTTPPVLDSDGSFFLYSVLTVDKSRWQQGNVFSCSVMHEALHNHYTQKSLSLSPG light 2: DIQMTQSPSSLSASVGDRVTITCSASSSVTYMYWYQRKPGDAPKLLIYDTSNLASGVPSRFSGSGSGTDYTFTISSLQPEDIATYYCQQWSSHIFTFGQGTKVEIKRTVAAPSVFIFPPSDEQLKSGTASVVCLLNNFYPREAKVQWKVDNALQSGNSQESVTEQDSKDSTYSLSSTLTLSKADYEKHKVYACEVTHQGLSSPVTKSFNRGEC | 72.5 | 0.895
GOMP001_bsAb_030 (bispecific antibody, human IgG1, kappa, L234A L235A) heavy 1: QVQLVQSGAEVKKPGASVKVSCKASGYTVTGYYMHWVRKAPGQGLEWMGWINPNSGGTNFAQEFQGRVTMTRDTSISTFYMDLNRLRSDDTAVYYCARGGAPVSYWFFDLWGRGTLVTVSSASTKGPSVFPLAPSSKSTSGGTAALGCLVADYFPEPVTVSWNSGALTSGVHTFPAVLQSSGLYSLSSVVTVPSSSLGTQTYICNVNHKPSNTKVDEKVEPKSCDKTHTCPPCPAPEAAGGPSVFLFPPKPKDTLMISRTPEVTCVVVDVSHEDPEVKFNWYVDGVEVHNAKTKPREEQYNSTYRVVSVLTVLHQDWLNGKEYKCKVSNKALPAPIEKTISKAKGQPREPQVYTLPPSREEMTDNQVSLTCLVKGFYPSDIAVEWESNGQPENNYKTTPPVLMSDGSFFLASKLTVDKSRWQQGNVFSCSVMHEALHNHYTQKSLSLSPG light 1: RIQMTQSPSSLSASVGDRVTITCRASQSISRYLNWYQDKPGKAPKVLIYNTSSLKSGVPSRFSGSGSGTDFTLTISSLQPEDFGTFYCQQSHSTPFTFGPGTKVDIKRTVAAPSVFIFPPSDKQLKSGTARVVCLLNNFYPREAKVQWKVDNALQSGNSQESVTEQDSKDSTYSLSSTLTLSKADYEKHKVYACEVTHQGLSSPVTKSFNRGEC heavy 2: QVQLVQSGAEVKKPGASVKVSCKASGYTFTSHWMHWVRYAPGQGLEWIGEFNPSNGRTNYNEKFKSKATMTVDTSTNTAYMELSSLRSEDTAVYYCASRDYDYDGRYFDYWGRGTLVTVSSASTKGPSVFPLAPSSKSTSGGTAALGCLVKDYFPEPVTVSWNSGALTSGVHTFPAVLQSSGLYSLSSVVTVPSSSLGTQTYICNVNHKPSNTKVDKKVEPKSCDKTHTCPPCPAPEAAGGPSVFLFPPKPKDTLMISRTPEVTCVVVDVSHEDPEVKFNWYVDGVEVHNAKTKPREEQYNSTYRVVSVLTVLHQDWLNGKEYKCKVSNKALPAPIEKTISKAKGQPRRPRVYTLPPSREEMTKNQVSLVCLVKGFYPSDIAVEWESNGQPENNYKTTPPVLDSDGSFFLYSVLTVDKSRWQQGNVFSCSVMHEALHNHYTQKSLSLSPG light 2: DIQMTQSPSSLSASVGDRVTITCSASSSVTYMYWYQRKPGDAPKLLIYDTSNLASGVPSRFSGSGSGTDYTFTISSLQPEDIATYYCQQWSSHIFTFGQGTKVEIKRTVAAPSVFIFPPSDEQLKSGTASVVCLLNNFYPREAKVQWKVDNALQSGNSQESVTEQDSKDSTYSLSSTLTLSKADYEKHKVYACEVTHQGLSSPVTKSFNRGEC | 92.6 | 0.0454
GOMP001_bsAb_031 (bispecific antibody, human IgG1, kappa, L234A L235A) heavy 1: QVQLVQSGAEVKKPGASVKVSCKASGYTFTSHWMHWVRKAPGQGLEWIGEFNPSNGRTNYNEEFKSKATMTVDTSTNTAYMELSSLRSEDTAVYYCASRDYDYDGRYFDYWGQGTLVTVSSASTKGPSVFPLAPSSKSTSGGTAALGCLVADYFPEPVTVSWNSGALTSGVHTFPAVLQSSGLYSLSSVVTVPSSSLGTQTYICNVNHKPSNTKVDEKVEPKSCDKTHTCPPCPAPEAAGGPSVFLFPPKPKDTLMISRTPEVTCVVVDVSHEDPEVKFNWYVDGVEVHNAKTKPREEQYNSTYRVVSVLTVLHQDWLNGKEYKCKVSNKALPAPIEKTISKAKGQPREPQVYTLPPSREEMTDNQVSLTCLVKGFYPSDIAVEWESNGQPENNYKTTPPVLMSDGSFFLASKLTVDKSRWQQGNVFSCSVMHEALHNHYTQKSLSLSPG light 1: RIQMTQSPSSLSASVGDRVTITCSASSSVTYMYWYQDKPGKAPKLLIYDTSNLASGVPSRFSGSGSGTDYTFTISSLQPEDIATYYCQQWSSHIFTFGQGTKVEIKRTVAAPSVFIFPPSDKQLKSGTARVVCLLNNFYPREAKVQWKVDNALQSGNSQESVTEQDSKDSTYSLSSTLTLSKADYEKHKVYACEVTHQGLSSPVTKSFNRGEC heavy 2: QGQLVESGGGVVQPGRSLRLSCAASGFTFRGFGMHWVRYAPGKGLEWVAIIYYDGKNKYYADRVKGRFTISRDNSKNTLYLQMNSLRAEDTAVYYCAKGGGYNWFDPWGRGTLVTVSSASTKGPSVFPLAPSSKSTSGGTAALGCLVKDYFPEPVTVSWNSGALTSGVHTFPAVLQSSGLYSLSSVVTVPSSSLGTQTYICNVNHKPSNTKVDKKVEPKSCDKTHTCPPCPAPEAAGGPSVFLFPPKPKDTLMISRTPEVTCVVVDVSHEDPEVKFNWYVDGVEVHNAKTKPREEQYNSTYRVVSVLTVLHQDWLNGKEYKCKVSNKALPAPIEKTISKAKGQPRRPRVYTLPPSREEMTKNQVSLVCLVKGFYPSDIAVEWESNGQPENNYKTTPPVLDSDGSFFLYSVLTVDKSRWQQGNVFSCSVMHEALHNHYTQKSLSLSPG light 2: DIQMTQSPSSLSASVGDRVTITCRASQSISTYLNWYQRKPGDAPKLLIYSASSLQSGVPSRFSGSGSGTDFTLTISNLQPEDFAIYYCQRSYSPPFTFGPGTKLDIRRTVAAPSVFIFPPSDEQLKSGTASVVCLLNNFYPREAKVQWKVDNALQSGNSQESVTEQDSKDSTYSLSSTLTLSKADYEKHKVYACEVTHQGLSSPVTKSFNRGEC | 68.8 | –
GOMP001_bsAb_029 (bispecific antibody, human IgG1, kappa, L234A L235A) heavy 1: QVQLVQSGAEVKKPGASVKVSCKASGYTFTSHWMHWVRKAPGQGLEWIGEFNPSNGRTNYNEEFKSKATMTVDTSTNTAYMELSSLRSEDTAVYYCASRDYDYDGRYFDYWGQGTLVTVSSASTKGPSVFPLAPSSKSTSGGTAALGCLVADYFPEPVTVSWNSGALTSGVHTFPAVLQSSGLYSLSSVVTVPSSSLGTQTYICNVNHKPSNTKVDEKVEPKSCDKTHTCPPCPAPEAAGGPSVFLFPPKPKDTLMISRTPEVTCVVVDVSHEDPEVKFNWYVDGVEVHNAKTKPREEQYNSTYRVVSVLTVLHQDWLNGKEYKCKVSNKALPAPIEKTISKAKGQPREPQVYTLPPSREEMTDNQVSLTCLVKGFYPSDIAVEWESNGQPENNYKTTPPVLMSDGSFFLASKLTVDKSRWQQGNVFSCSVMHEALHNHYTQKSLSLSPG light 1: RIQMTQSPSSLSASVGDRVTITCSASSSVTYMYWYQDKPGKAPKLLIYDTSNLASGVPSRFSGSGSGTDYTFTISSLQPEDIATYYCQQWSSHIFTFGQGTKVEIKRTVAAPSVFIFPPSDKQLKSGTARVVCLLNNFYPREAKVQWKVDNALQSGNSQESVTEQDSKDSTYSLSSTLTLSKADYEKHKVYACEVTHQGLSSPVTKSFNRGEC heavy 2: QVQLVQSGAEVKKPGASVKVSCKASGYTVTGYYMHWVRYAPGQGLEWMGWINPNSGGTNFAQRFQGRVTMTRDTSISTFYMDLNRLRSDDTAVYYCARGGAPVSYWFFDLWGRGTLVTVSSASTKGPSVFPLAPSSKSTSGGTAALGCLVKDYFPEPVTVSWNSGALTSGVHTFPAVLQSSGLYSLSSVVTVPSSSLGTQTYICNVNHKPSNTKVDKKVEPKSCDKTHTCPPCPAPEAAGGPSVFLFPPKPKDTLMISRTPEVTCVVVDVSHEDPEVKFNWYVDGVEVHNAKTKPREEQYNSTYRVVSVLTVLHQDWLNGKEYKCKVSNKALPAPIEKTISKAKGQPRRPRVYTLPPSREEMTKNQVSLVCLVKGFYPSDIAVEWESNGQPENNYKTTPPVLDSDGSFFLYSVLTVDKSRWQQGNVFSCSVMHEALHNHYTQKSLSLSPG light 2: DIQMTQSPSSLSASVGDRVTITCRASQSISRYLNWYQRKPGDAPKVLIYNTSSLKSGVPSRFSGSGSGTDFTLTISSLQPEDFGTFYCQQSHSTPFTFGPGTKVDIKRTVAAPSVFIFPPSDEQLKSGTASVVCLLNNFYPREAKVQWKVDNALQSGNSQESVTEQDSKDSTYSLSSTLTLSKADYEKHKVYACEVTHQGLSSPVTKSFNRGEC | 81.1 | 0.136
